# Laboratory results from paper PMC11633826, “Site-specific π-clamp-mediated radiosynthesis of ^68Ga and ^18F PET radiopharmaceuticals” (Chemical Communications (Cambridge, England), 2024).
# Bridge positions count the residues as written; N and C are the ends. Square brackets hold non-standard residues; d marks the D form. Peptide text beside a SMILES is read from it. * marks the point of attachment. X1 = O=C(O)CN1CCN(CC(=O)O)CCN(C(CCC(=O)NCCNC(=O)CCOCCOCCOCCOCCOCCC(=O)NCCSc2c(F)c(F)c(-c3c(F)c(F)c(*)c(F)c3F)c(F)c2F)C(=O)O)CC1
# Assays:
# in vivo [1] = conditions: BALB/c, mouse, iv, total radioactivity, Ex vivo biodistribution
# Protocol: page 9: mice under 0.8-1.5% isoflurane in oxygen anaesthesia and warmed to 37 °C for the duration of the experiment. Mice were administered [68Ga]Ga-5 (∼2-3 μg, ∼0.8-1.5 MBq) in 200 μL of PBS via intravenous tail injection. Dynamic PET scans were acquired for up to 1 h post injection, followed by a CT scan for anatomical visualisation (480 projections; helical acquisition; 55 kVp; 600 ms exposure time). PET/CT datasets were reconstructed using a Monte Carlo-based full-3D iterative algorithm (TeraTomo, Mediso) with 4 iterations, 6 subsets, and 0.4 mm isotropic voxel size. Images were co-registered and analysed using VivoQuant v.3.0 (Invicro). Regions of interest (ROIs) were delineated for PET activity quantification in specific organs. Uptake in each ROI was expressed as a percentage of injected dose per gram of tissue (% ID/g). Biodistribution studies: Following PET/CT imaging study, mice (n=4/group, one mouse from each group was not subjected to PET/CT imaging) were culled by cervical dislocation, organs were dissected, weighed, and gamma- counted along with standards prepared from the corresponding sample of injected radiolabelled conjugates. Conjugate uptake was calculated as a percentage of injected dose per gram (% ID/g) of tissue.
# in vivo [2] = conditions: mouse
# Protocol: (§1) Stability of [18F]AlF-4: [18F]AlF-4 (3-5 MBq) was incubated at 37 °C in RPMI media (500 µL). Aliquots of the
# (§2) solutions were sampled at 1, 2, 3, 4 and 5 h and diluted in H 2O for C18 RP-HPLC analysis. The diluted solutions
# (§3) were centrifuged at 13,000 g for 5 min prior to analysis.
# (§4) Stability of [68Ga]Ga-5: A sample of [68Ga]Ga-5 was added to serum (with or without 5 mM reduced glutathione),
# (§5) in a ratio of one part radiolabelled solution to four parts of serum by volume and incubated at 37 °C. Aliquots
# (§6) were taken for SE-HPLC analysis at t = 1 h, 2 h, 3 h, 4 h and 5 h.
# (§7) Cell culture: The rat cancer cell line AR42J (cultured in RPMI -1640) was purchased from American Type Culture
# (§8) Collection. Growth media were supplemented with 10 % foetal bovine serum (FBS), 100 units/mL penicillin , 100
# (§9) µg/mL streptomycin, and 2 mM ʟ-glutamine. Cell lines were harvested twice weekly using a formulation of 0.25
# (§10) % trypsin/0.53 mM EDTA in Phosphate Buffered Salt (PBS) Solution without calcium and magnesium, which was
# then neutralised with the appropriate medium containing FBS. […]
# (§11) by PBS wash (500 μL x 1). The radioactivity associated with each fraction were then counted using a gamma […]
# isotropic voxel size. Images were co-registered and analysed using VivoQuant v.3.0 (Invicro). […]
# (ROIs) were delineated for PET activity quantification in specific organs. Uptake in each ROI was expressed as a […]
# [3] = type: in vitro ADME, human
# Protocol: as §1, §2, §3, §4, §5, §6, §7, §8, §9, §10
# then neutralised with the appropriate medium containing FBS. Cells were maintaine d in a humidified chamber
# containing 5 % CO2 at 37 °C.
# SSTR2 in vitro binding studies: [68Ga]Ga-5 was prepared as per above. The radioconjugate was then diluted with […]
# as §11
# physchem = conditions: pH 7.4
smiles,measurement,setting,value
"C[C@@H](O)[C@H](NC(=O)[C@@H]1CSSC[C@H](NC(=O)[C@@H](Cc2ccccc2)NC(=O)[C@H](Cc2ccccc2)NC(=O)[C@@H]2CCCN2C(=O)[C@H](CSc2c(F)c(F)c(-c3c(F)c(F)c(SCCNC(=O)CCOCCOCCOCCOCCOCCC(=O)NCCNC(=O)CCC(C(=O)O)N4CCN(CC(=O)O)CCN(CC(=O)O)CC4)c(F)c3F)c(F)c2F)NC(=O)[C@@H](N)Cc2ccccc2)C(=O)N[C@@H](Cc2ccc(O)cc2)C(=O)N[C@H](Cc2c[nH]c3ccccc23)C(=O)N[C@@H](CCCCN)C(=O)N[C@@H]([C@@H](C)O)C(=O)N1)C(=O)O (stereo partly shown) [[68Ga]Ga-5, [^68Ga]Ga-NODAGA-FCPF-TATE, metal not drawn] (H-FC(X1)PF[dF]CY[dW]KTCT-OH; disulfide 6-11)",tissue uptake at 1 h,in vivo [1]; Bone,0.95 %ID/g
same,tissue uptake at 1 h,in vivo [1]; Brain,1.29 %ID/g
same,tissue uptake at 1 h,in vivo [1]; Pituitary gland,6.04 %ID/g
same,tissue uptake at 1 h,"in vivo [1]; female, Adrenal glands",6.45 %ID/g
same,tissue uptake at 1 h,"in vivo [1]; female, Blood",27.2 %ID/g
same,tissue uptake at 1 h,"in vivo [1]; female, Heart",7.89 %ID/g
same,tissue uptake at 1 h,"in vivo [1]; female, Kidneys",9.57 %ID/g
same,tissue uptake at 1 h,"in vivo [1]; female, Liver",54.6 %ID/g
same,tissue uptake at 1 h,"in vivo [1]; female, Lower GI",2.76 %ID/g
same,tissue uptake at 1 h,"in vivo [1]; female, Lungs",10.6 %ID/g
same,tissue uptake at 1 h,"in vivo [1]; female, Muscle",0.69 %ID/g
same,tissue uptake at 1 h,"in vivo [1]; female, Pancreas",3.49 %ID/g
same,tissue uptake at 1 h,"in vivo [1]; female, Spleen",20.8 %ID/g
same,tissue uptake at 1 h,"in vivo [1]; female, Stomach",2.17 %ID/g
same,tissue uptake at 1 h,"in vivo [1]; female, Upper GI",5.64 %ID/g
same,tissue uptake at 1 h,"in vivo [2]; female, BALB/c, iv, total radioactivity, PET 68Ga radioactivity remaining in circulation",13.8 ± 1.61 %ID/g
same,route of clearance from the blood pool,in vivo [2],predominantly hepatically
same,dissociation of the radiotracer in human serum,[3],2%
same,logD,physchem,-0.4 ± 0.03
